Data taken from article PMC5639367 (2017).
Ends that are not written are not given here.

B1: 8-mer Cul2 peptide, Leu3 replaced by alanine (peptide)
peptide: MSAKPRVV-NH2
B2: 8-mer Cul2 peptide, Val7 replaced by alanine (peptide)
peptide: MSLKPRAV-NH2
B3: 8-mer Cul2 peptide, Met1 replaced by alanine (peptide)
peptide: ASLKPRVV-NH2
B4: 8-mer Cul2 peptide, Val8 replaced by alanine (peptide)
peptide: MSLKPRVA-NH2
B5: 8-mer Cul2 peptide, Ser2 replaced by alanine (peptide)
peptide: MALKPRVV-NH2

Target: VBC ternary complex (pVHL, Elongin B, Elongin C) (UniProt P40337 1-213; Q15370 1-104; Q15369 17-112)
Assay: BLI

Row | Binder | Kd [µM]
1 | B1 | 2900
2 | B2 | 2100
3 | B3 | 2800
4 | B4 | 500
5 | B5 | 7100
